Measured values published in US20250281533A1 (LG CHEM, published 2025).

B1: scFv 2447_3H02 (scFv)
scFv: EVQLLESGGGLVQPGRSLRLSCAASGFTFDDYAMHWVRQAPGKGLEWVSGISWDSGSIGYADSVKGRFTISRDNAKNSLYLQMNSLRAEDTALYYCAKDVSSGWYWYAFDIWGQGTLVTVSSGGGGSGGGGSGGGASSYELTQDPAVSVALGQTVRITCQGDILRSYYASWYQQKPGQAPVLVIYGKNNRPSGIPDRFSGSSSGNTASLTITGAQAEDEADYYCNSRDSSGNRVVFGGGTKLTVL
notes: also called #9
B2: scFv 2447_3C08 (scFv)
scFv: EVQLLESGGGLVQPGGSLRLSCAASGFTFDDYAMHWVRQAPGKGLEWVSGISWNSGSIGYADSVKGRFTISRDNAKNSLYLQMNSLRAEDTALYYCAKDRGSGYEGNYYGMDVWGQGTLVTVSSGGGGSGGGGSGGGASSYELTQDPAVSVALGQTVRITCQGDSLRSYYASWYQQKPGQAPVLVIYGKNNRPSGIPDRFSGTTSGNTASLTITGAQAEDEADYYCNSRDSSGNHYVFGTGTKVTVL
B3: scFv 2447_3B07 (scFv)
scFv: QVQLVESGGVVVQPGGSLRLSCAASGFTFDDYAMHWVRQAPGRGLEWVSLTSWDGGSTYYADSVKGRFTISRDNSKNSLYLQMNSLRAEDTALYYCAKDHSSGWYNGGMDVWGQGTMVTVSSGGGGSGGGGSGGGASSYELTQDPAVSVALGQTVRITCQGDSLRSYYASWYQQKPGQAPVLVIYGKNNRPSGIPDRFSGSSSGNTASLTITGAQAEDEADYYCNSRDSSGNHVVFGGGTKLTVL
B4: scFv 2447_3H08 (scFv)
scFv: EVQLLESGGGLVQPGRSLRLSCAASGFTFDDYAMHWVRQAPGKGLEWVSGISWNSGSIDYADSVKGRFTISRDNSKNTLYLQMNSLRAEDTAVYYCARDRSSGWYTGSFDYWGQGTLVTVSSGGGGSGGGGSGGGASSYELTQDPAVSVALGQTVRITCQGDSLRSYYASWYRQKPGQAPVLVIYGKNNRPSGIPDRFSGSSSGNTASLTIIGAQAEDEADYYCQSRDSSDNRVLFGGGTKVTVL
notes: also called #10
B5: scFv 2447_2H08 (scFv)
scFv: EVQLVQSGAEVKKPGASVKVSCKASGYTFTNYGISWVRQAPGQGLEWMGWISAYNGNTNYAQKLQGRVTMTTDTSTSTAYMELRSLRSDDTAVYYCARDPHILTGYYRGGWFDPWGQGTTVTVSSGGGGSGGGGSGGGASSYELTQDPAVSVALGQTVTITCQGDSLRTSYAGWLQQKPGQAPVLVLYGKTSRPSGIPDRFSGSTSGNTASLTITGAQAEDEAEYFCHSRDSNDNYLEVVFGGGTKLTVL
B6: scFv 2445_1F09 (scFv)
scFv: EVQLLETGGGLIQPGGSLRLSCAASGFTVSSNYMSWVRQAPGKGLEWVSVIYSGGSTYYADSVKGRFTISRDNSKNTLYLQMNSLRAEDTAVYYCARDRGWNHGMDVWGQGTLVTVSSGGGGSGGGGSGGGASQSGLTQPPSASGTPGQRVTISCSGGSSEVGSRYVSWYQQLPGTAPRLLIYKNDRRPSGVPDRFSGSKSGSSASLAISGLRSEDEADYYCAAWDDSLNGYVFGTGTKLTVL

Biological target: T1, C subunit of human MUC1 expressed in HEK293T cells (HEK293T-v1) (human, UniProt P15941 1098-1255, limits assumed)
T1 construct: domain: C subunit of MUC1; also called MUC1-C
T1 sequence (looked up): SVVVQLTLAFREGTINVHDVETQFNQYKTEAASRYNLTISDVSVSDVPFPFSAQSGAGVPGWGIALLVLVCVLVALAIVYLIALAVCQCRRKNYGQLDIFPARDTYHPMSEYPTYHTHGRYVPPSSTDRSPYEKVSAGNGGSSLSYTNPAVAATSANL
Assay: flow cytometry (PE MFI, corrected to G03 at 380 ug/mL) on HEK293T-v1 cells expressing MUC1 C subunit
Experimental: (§1) The soluble scFv prepared in Example 1 was diluted 5-fold to prepare a total of 8 serial dilutions. Each serial dilution was 380 μg/mL, 76 μg/mL, 15.2 μg/mL, 3.04 μg/mL, 0.608 μg/mL, 0.1216 μg/mL, 0.02432 μg/mL, 0.004864 μg/mL. A buffer used in soluble scFv dilution and cell washing was PBS containing 2% FBS and 10 mM EDTA. Four kinds of cells were prepared at a density of 1×10⁶/mL, respectively, and put in a 96 well U-bottom cell culture plate at a density of 1×10⁵/100 μl/well, followed by centrifugation at 1500 RPM for 5 minutes. The soluble scFv prepared previously was treated in an amount of 50 μl/well. The cells were left at 4° C. for 1 hour. 150 μl/well of the cell washing buffer was added thereto and then mixed, followed by centrifugation at 1500 RPM for 5 minutes. The supernatant was discarded, and 200 μl/well of the cell washing buffer was added thereto and then mixed, followed by centrifugation at 1500 RPM for 5 minutes. A goat anti-human IgG Fc-biotin antibody (Invitrogen, A18821) was diluted 500-fold, and 50 μl/well thereof was treated. The cells were left at 4° C. for 20 minutes. 150 μl/well of the cell washing buffer was added thereto and then mixed, followed by centrifugation at 1500 RPM for 5 minutes. The supernatant was discarded, and 200 μl/well of the cell washing buffer was added thereto and then mixed, followed by centrifugation at 1500 RPM for 5 minutes. PE-Streptavidin (BD Pharmigen, 554061) was diluted 1000-fold, and 50 μl/well thereof was treated. The cells were left at 4° C. for 20 minutes. 150 μl/well of the cell washing buffer was added thereto and then mixed, followed by centrifugation at 1500 RPM for 5 minutes. The supernatant was discarded, and 200 μl/well of the cell washing buffer was added thereto and then mixed, followed by centrifugation at 1500 RPM for 5 minutes. 80 μl/well of the cell washing buffer was added and mixed, followed by flow cytometry.
The affinity of the soluble scFv to the mucin1-expressing cells was confirmed by PE MFI values from the results of the flow cytometry. Each cell line without soluble scFv was stained with another fluorescent antibody (Goat anti-human IgG Fc-biotin antibody, PE-Streptavidin), which was used as a negative control value, and each cell line was treated with G03 at a concentration of 380 μg/mL, which was used as a positive control value, and MFI value was corrected as follows: […]

Row | Binder | EC50
1 | B1 | 1.41 µg/mL
2 | B2 | 1.38 µg/mL
3 | B3 | 3.86 µg/mL
4 | B4 | 2.57 µg/mL
5 | B5 | 21.7 µg/mL

Biological target: T1, C subunit of human MUC1 expressed in …
Assay: flow cytometry (PE MFI, corrected to G03 at 380 ug/mL) on HEK293T-v1 cells expressing MUC1 C subunit; 293T-v1 cells
Experimental: as §1, with “PE-Streptavidin (BD Pharmigen, 554061) was diluted 1000-fold, and 50 μl/well thereof was treated. The cells were left at 4° C. for 20 minutes. 150 μl/well of the cell washing buffer was added thereto and then mixed, followed by centrifugation at 1500 RPM for 5 minutes. The supernatant was discarded, and 200 μl/well of the cell washing buffer was added thereto and then mixed, followed by centrifugation at 1500 RPM for 5 minutes. 80 μl/well of the cell washing buffer was added and mixed, followed by flow cytometry.” left out

Row | Binder | EC50
6 | B6 | > 380 µg/mL
